Data as given in patent publication US20250051463A1 (AstraZeneca / MedImmune, published 2025).
Positions count from the first letter of the chain named.

T1: human IL3Rα (CD123), sample in solution for biolayer interferometry (human, UniProt P26951 19-305, limits assumed)
T1 construct: Soluble analyte in the Octet assay; also called hIL3-Rα; hIL3Rα
T1 sequence (looked up): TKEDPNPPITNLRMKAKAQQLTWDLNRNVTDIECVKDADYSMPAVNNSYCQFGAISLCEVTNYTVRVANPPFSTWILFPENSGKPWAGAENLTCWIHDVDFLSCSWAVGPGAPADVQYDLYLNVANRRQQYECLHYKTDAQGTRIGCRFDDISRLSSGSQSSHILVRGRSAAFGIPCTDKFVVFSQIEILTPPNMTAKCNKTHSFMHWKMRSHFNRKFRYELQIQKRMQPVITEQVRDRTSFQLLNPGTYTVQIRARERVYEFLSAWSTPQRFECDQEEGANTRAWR

B1: HT12-GL-SG3932 (antibody, human IgG1, kappa, V domains shown)
VH: EVQLLESGGGLVQPGGSLRLSCAASGFTFNIYAMTWVRQAPGKGLEWVSGISAGGDSTYYADSVKGRFTISRDNSKNTLYLQMNSLRAEDTAVYYCAKDRGYYYGMDVWGQGTTVTVSS
VL: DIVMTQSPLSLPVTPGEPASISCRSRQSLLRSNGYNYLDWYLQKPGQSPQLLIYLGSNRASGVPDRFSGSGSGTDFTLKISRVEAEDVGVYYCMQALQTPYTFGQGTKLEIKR
modifications: SG3932 drug-linker on Cysteine 214 (EU numbering); SG3932 drug-linker (maleimide, succinimidyl thioether) on reduced cysteines; Cysteine 220, Cysteine 226 and Cysteine 229 (EU numbering) named as conjugation sites; DAR 8
notes: also called HT12-GL ADC; CD123 ADC
B2: HT31-GL (antibody, V domains shown)
VH: B1 VH with N30S, T35S, G50A, A53G, Y102F
VL: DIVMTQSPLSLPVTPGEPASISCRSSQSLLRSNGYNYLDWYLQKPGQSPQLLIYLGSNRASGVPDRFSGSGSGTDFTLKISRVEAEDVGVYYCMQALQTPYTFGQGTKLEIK
notes: member of m17
B3: HT6-GL (antibody, V domains shown)
VH: B1 VH with I31S, T35S, G50A, I51V, A53G, S57T, D62E, D107A
VL: DIVMTQSPLSLPVTPGEPASISCRSSQSLLRSNGYHYLDWYLQKPGQSPQLLIYLGSNRAPGVPDRFSGSGSGTDFTLKISRVEAEDVGVYYCMQALQTPYTFGQGTKLEIK
notes: member of m17
B4: HT4-GL (antibody, V domains shown)
VH: B1 VH with N30S, T35S, G50A, A53G, Y60N, D107V
VL: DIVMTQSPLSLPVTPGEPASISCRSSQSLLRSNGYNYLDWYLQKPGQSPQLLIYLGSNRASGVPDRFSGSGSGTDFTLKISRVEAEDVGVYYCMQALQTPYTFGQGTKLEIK
notes: member of m17
B5: HT34-GL-L (antibody, V domains shown)
VH: B1 VH with N30S, I31H, G50A, A53G, S57T, N77T
VL: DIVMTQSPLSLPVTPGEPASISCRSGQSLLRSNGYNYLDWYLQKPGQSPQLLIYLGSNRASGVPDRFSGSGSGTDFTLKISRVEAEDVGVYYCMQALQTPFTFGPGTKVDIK
notes: member of m17
B6: HT36-GL (antibody, V domains shown)
VH: B1 VH with N30S, T35S, G50A, A53G, S57T, I70S, Y95F, Y102F
VL: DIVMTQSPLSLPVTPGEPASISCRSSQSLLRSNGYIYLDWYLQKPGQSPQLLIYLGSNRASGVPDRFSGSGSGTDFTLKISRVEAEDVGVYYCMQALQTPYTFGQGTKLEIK
notes: member of m17
B7: HT8-GL (antibody, V domains shown)
VH: B1 VH with N30S, T35S, G50A, A53G, S57T, V64M
VL: not shown
notes: member of m17
B8: HT16-GL (antibody, V domains shown)
VH: B1 VH with N30S, I31N, G50A, A53G, S57T
VL: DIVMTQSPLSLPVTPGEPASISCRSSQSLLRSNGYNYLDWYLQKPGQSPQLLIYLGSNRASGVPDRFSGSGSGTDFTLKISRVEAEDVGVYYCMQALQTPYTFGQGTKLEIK
notes: member of m17
B9: HT29-GL (antibody, V domains shown)
VH: B1 VH with T28A, N30S, I31H, T35S, G50A, A53G
VL: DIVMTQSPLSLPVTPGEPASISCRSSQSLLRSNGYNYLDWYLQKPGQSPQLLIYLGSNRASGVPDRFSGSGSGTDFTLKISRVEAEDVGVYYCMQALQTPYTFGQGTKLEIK
notes: member of m17
B10: HT7-GL (antibody, V domains shown)
VH: B1 VH with N30S, I31H, T35S, G50A, A53G, S57R, Y59F, Y102F
VL: not shown
notes: member of m17
B11: HT14-GL (antibody, V domains shown)
VH: B1 VH with A53G, I70M
VL: B3 VL with R24K, S26R, H36N, P61S
notes: member of m17
B12: HT33-GL (antibody, V domains shown)
VH: B1 VH with N30G, I31H, T35S, G50A, A53G, S57Y, F68L
VL: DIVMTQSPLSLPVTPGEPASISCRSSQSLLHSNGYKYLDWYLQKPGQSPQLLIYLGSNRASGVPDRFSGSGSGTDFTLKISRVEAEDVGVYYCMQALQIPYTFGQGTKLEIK
notes: member of m17
B13: HT30-GL (antibody, V domains shown)
VH: B1 VH with N30S, T35S, G50A, S52T, S57T, D62V
VL: not shown
notes: member of m17
B14: HT32-GL (antibody, V domains shown)
VH: B1 VH with N30S, I31S, T35S, G50A, A53G, S57T, Y102F
VL: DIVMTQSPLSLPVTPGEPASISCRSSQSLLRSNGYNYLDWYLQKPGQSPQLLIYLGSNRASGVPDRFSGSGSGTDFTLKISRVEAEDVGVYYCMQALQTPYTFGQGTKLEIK
notes: member of m17
B15: HT35-GL (antibody, V domains shown)
VH: B1 VH with N30S, I31H, V48I, G50A, A53G
VL: not shown
notes: member of m17
B16: HT10-GL (antibody, V domains shown)
VH: B1 VH with N30S, I31H, V48I, G50A, A53G, V108D
VL: not shown
notes: member of m17
B17: J13 antibody (antibody, V domains shown)
VH: EVQLVESGGGLVQPGGSLRLSCVVSGFTFSSYAMSWVRQAPGKGLEWVSAISGSGDSTYYADSVKGRFTFSRDNSKNTLYLQMNSLRAEDTAVYYCTKDRGFYYGMDVWGQGTMVTVSS
VL: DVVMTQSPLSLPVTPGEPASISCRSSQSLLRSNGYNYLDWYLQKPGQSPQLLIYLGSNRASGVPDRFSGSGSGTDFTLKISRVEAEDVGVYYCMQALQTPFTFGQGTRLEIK
notes: also called Antibody J13
B18: HT37-GL (antibody, V domains shown)
VH: B1 VH with N30S, G50A, S57N, Y60N
VL: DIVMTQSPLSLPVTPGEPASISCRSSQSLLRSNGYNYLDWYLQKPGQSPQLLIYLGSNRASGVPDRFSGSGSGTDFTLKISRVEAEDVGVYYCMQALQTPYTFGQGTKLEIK
notes: member of m17
B19: HT37-GL-L (antibody, V domains shown)
VH: B1 VH with N30S, G50A, S57N, Y60N, N77I
VL: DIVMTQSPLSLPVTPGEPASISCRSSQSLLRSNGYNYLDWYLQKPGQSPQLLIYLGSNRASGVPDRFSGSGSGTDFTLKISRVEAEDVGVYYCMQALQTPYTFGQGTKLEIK
notes: member of m17
B20: HT38-GL-Q (antibody, V domains shown)
VH: B1 VH with N30S, I31S, T35S, G50A, A53G, A61T, Y102F
VL: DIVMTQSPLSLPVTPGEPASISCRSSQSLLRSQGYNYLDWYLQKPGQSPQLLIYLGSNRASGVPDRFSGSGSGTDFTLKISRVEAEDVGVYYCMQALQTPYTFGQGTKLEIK
notes: member of m17
B21: HT38-GL (antibody, V domains shown)
VH: B1 VH with N30S, I31S, T35S, G50A, A53G, A61T, Y102F
VL: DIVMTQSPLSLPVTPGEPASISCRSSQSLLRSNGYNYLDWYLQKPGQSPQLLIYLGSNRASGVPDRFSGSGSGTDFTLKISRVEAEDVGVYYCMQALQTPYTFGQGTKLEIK
notes: member of m17

Target: T2, human CD123 (IL3Rα) on cells (human, UniProt P26951 19-378)
T2 construct: whole, on cells; also called human IL3Rα expressed on 293 cells; AD293hIL3Rα
Experiment: flow cytometry on THP-1 CD123 (no dox) cells, Geo MFI
Procedure: (§1) THP-1 cells were transfected with an IL3Rα expression construct under the control of a doxycycline inducible promoter. THP-1 cells were maintained in DMEM containing 10% heat-inactivated fetal bovine serum (FBS) and were cultured in a humidified atmosphere of 5% CO₂ and at a temperature of 37° C. […] (Dox) inducible cells were stimulated with 1 μg/ml dox overnight before use. […] On the day of plating, cells were spun down at 1500 rpm for 3 minutes, counted, and resuspended to a final concentration of 1×10⁶ cells/ml. Two hundred μl of cells were plated in wells of 96 well microtiter plates. The plates were spun down at 1500 rpm for 3 minutes and flicked to remove media. One hundred μl of FACS buffer (PBS+2% FBS) was added to each well. […] The antibody concentration started at 12 μg/ml followed by six 1:3 dilutions (no antibody control was also run). The plates were incubated at 4° C. for 30 minutes. Following incubation, the plates were washed 3 times by spinning down at 1500 rpm for 3 minutes, flicked and 100 μl of FACs buffer was added. Alexa 647 secondary antibody (goat anti-human IgG (H+L)) was added at 1:1000 dilution in 100 μl followed by 30 minute 4° C. incubation. The plates were washed as above. […] Cells were analyzed on a BD Bioscience LSRII by collecting 10,000 cells. Flow data was analyzed in FlowJo software.

With B1 as the binder, how does the “EC50 (read off the curve)” value read?
The value was ~0.1 µg/mL.

Target: T2, human CD123 (IL3Rα) on cells
Experiment: flow cytometry on THP-1 CD123(+dox) cells, Geo MFI
Procedure: as §1

How did the “EC50 (read off the curve)” value turn out when B1 was run?
The value was ~0.3 µg/mL.

Target: T2, human CD123 (IL3Rα) on cells
Experiment: flow cytometry on Ad293 cells expressing human IL3Ra, geometric mean

Does B2 bind?
Result: binds

Does B3 bind?
Result: binds

Does B4 bind?
Result: binds

Does B5 bind?
Result: binds

Does B6 bind?
Result: binds

Does B7 bind?
Result: binds

Does B8 bind?
Result: binds

Does B9 bind?
Result: binds

Does B10 bind?
Result: binds

Does B11 bind?
Result: binds

Does B12 bind?
Result: binds

Does B13 bind?
Result: binds

Does B14 bind?
Result: binds

Does B15 bind?
Result: binds

Does B16 bind?
Result: binds

Target: T1, human IL3Rα (CD123), sample in solution …
Experiment: kinetic binding curves, antibody on the sensor, human CD123 in solution
Procedure: Biolayer interferometry binding experiments were performed using an Octet RED384 instrument, with all measurements made at 30° C. AHC biosensor probes were soaked in kinetics buffer (PBS pH 7.2+0.02% Tween-20, 0.1% BSA, 0.05% sodium azide) for 10 minutes, followed by baseline signal measurement in kinetics buffer for 60 seconds. […] For binding to hIL3-Rα, the antibody-loaded biosensor tips were dipped in binding buffer for 60 sec (baseline), followed by immersion in a solution containing dilutions of hIL3-Rα (10-0.16 μg/mL) for 300 sec (association), and subsequent immersion in kinetics buffer for 400 sec (dissociation). For binding to hIL5-Rα and GM-CSFRa, all steps were the same except the concentration of antigen was increased (50-1.56 μg/mL) and the dissociation step was decreased to 300 sec. The signal from a buffer only reference sample was subtracted, and all curves were fit with a 1:1 binding model to determine KD values.

Does B17 bind?
Result: binds

Target: T2, human CD123 (IL3Rα) on cells
Experiment: flow cytometry on Mv411 cells, geometric mean

Does B18 bind?
Result: binds

Target: T2, human CD123 (IL3Rα) on cells
Experiment: flow cytometry on OCI-AML5 cells, geometric mean

Does B19 bind?
Result: binds

Does B20 bind?
Result: binds

Does B21 bind?
Result: binds
